A protein production outcome set (Wang et al. 2014)

Test: label from the status in PepcDB records

Sequence	protein production
MQPISILFLGIDDNDGRRKKGQDAEHSRSDAMILTTFNQSKHQIRMLSIPRDTISYIPKVGYYDKITHAHAYGGPIAAMDSVEATMNVPVDYYVRVNMKAFVEAVNELGGIYYDVPYDLNEPNTDDTGKIKIKKGYQKLNGDEALAVARTRHHDSDLKRGQRQMELIKILFQKAQEVDSIDKLDNVIQIVGKNAKHNLTNSEIKALAKMYLTNDVEIKTAQLKGKDDMLNGIYYYHPSVESIQKYANLLRKDLELSPINDKNDFLDQRVINHYGSLIPLTPLDSSLLRLEHHHHHH	not failed
MRIECYSWSDVSEQILEQAIALQNSAFEDMKGNFYQVDIPYKLVLAIDDNQVIGHVAVYLRDVYLDSFPETIGILSCVVVAHKYRGKGVAASLIKMAHAILKEHSVNFSILFAVSHAYYLSSGYIPMKNLTRFIENNEKKEFIYDGGMVCELGSQNWNVNILELNGEVV	failed
DRVLVPVANPNTEDNLLQLAIILTKSASGTLLPLHILLEENNPISPDAKAKQSQLLSTAEMIAHAAVVNVTPIGRIDESIDKGIARVAEEKQASAIICGWKGYSTYEENLFGGVIDKIVQRSFIPVLVSR	failed
MSTPDNRSVNFFSLFRRGQHYAKTWPMEKRLAPVFVENRVIRMTRYAIRFMPPVAVFTLCWQIALGGQLGPAVATALFALSLPMQGLWWLGKRSVTPLPPSILNWFYEVRGKLQEAGQALAPVEGKPDYQALADTLKRAFKQLDKTFLDDL	not failed
MVQSLAKQVIHQAVEVNAQDIYIIPKGDCYELYMRIDDERRFIDVFEFNRMASLISHFKFVAGMNVGEKRRSQLGSCDYELSEGRLVSLRLSSVGDYRGQESLVIRILY	failed
MTDPEKLTALKKAYAETILNTAKEAAARVMITERKARGYQQELASVRDEALRACLRLKQIYDSKVKEAEMISLQKQQKIEELEAQLGEAEDIVGELRTELRESRYLLEKLANGCQTNLSKEEKAPNEAVSLEVREDSSNHERSVVASVIKPHMSDRDLSINRCSYKENKDPCLYTLPSILSRCREAEVVERNTINGDCADVESLTEARKEEAKENDIELSTTPLSPSEKQCIKFSYKRKHNKDGSNSPEGGGSSSQDDDDDDESRSRRHKTGEKDNAYLDSFTSTEPSRDSRRVAQVARQVSESR	failed
MAQARCGGELLGLRAVLCVPPCPMPRLLPLTLLLLAAAAHAQSAAPLTIEQAMADPDWIGPSVDQAWWQWDGKQVQYLLKRAGSPVRDTYRQSTAGGTAERVADTARAGLDAANPSYDATRQRMLFARNGDIFLRDLRSGALTQLTRSNEIESRPQFASDGGAIWRAGNNWYHWRADGGTAQVAVVKAERDPDAAPKPDVLREHQLATLATLRRDKEQRDALRTQDDAWRRADATRAAAPVYLGDEVEIVDSALSPDGRHLLVVTQATNAEEGQAGKMPKYVTESGYEEFQEVRTRVGRNASVAHALWLVDVSAGTAKSLSFDPLPGIATDPLAALRKAAKRDALKGNRAVRVESNGDGSGPAVHWSDDGRNVAVEIRAVDNKDRWIASVDLDNAKLQPRHRLSDSAWINWDFNDFGWLPDNRTLWLLSEESGYSQLYTMEGNSKPRQRTRGKWEVSMPVPSADGSGMFFLCNQKWPGDYEVCKLDLRNDQLTEVTALNGVEGFSLSPNGQQLLVSYSGSYLPTQLAVVPATGGQATVLTDTRTPAFKAQPWIAPQYVQVPSKHGAGTVWGKYYGPTTPEPGKQYPIVMFVHGAGYLQNVSERYTPYFREQMFHNLLVQQGYIVLDLDYRASRGYGRDWRTAIYRNMGHTELEDYLDGLDWLVATKQGDRARAGIYGGSYGGFMTYMALFRSPGTFKAGAALRPVGDWMQYNHEYTSNILNTPELDPEAYKTSSPINYAEGLRDHLLIAHGMIDDNVFFKDSVDMTQKLMELHKDNWQLALYPLERHGFTRADSWLDEYKRILKLFNAQVKP	failed
MGYNTIPAGKDLPNDIYVAIEIPANASPIKYEIDKDMDALLVDRFMATPMFYPANYGYINNTLADDGDALDVLVITPYPVAPGSVIRARPVGVLKMSDEAGGDEKLLAVPHEKLTQLYNDIHDIDDVPQLLKDQIVHFFEHYKDLEKGKWVKVEGWENADAARAAIVKSAAAYKG	not failed
MKQKFSSLFVLLVLLLTGLQVSAQSTPKPFDIEQPSLRVFLPAPELATGRAVVACPGGGYSGLAVNHEGYDWAPYFNKQGIALIVLKYRMPKGDRTLPISDAEAAMKMVRDSADVWNLNPNDIGIMGSSAGGHLASTIATHAPEALRPNFQILFYPVITMDKSFTHMGSHDNLLGKDASADLEKEFSNEKQVTKETPRAFIVYSDDDKVVPPANGVNYYLALNKKGVPSVLHIYPTGGHGWGIREDFLYKSEMQNELTSWLRSFKAPRKDAVRVACIGNSITFGAGIRNRSRDSYPSVLARMLGDSYWVKNFGVSARTMLNKGDHPYMNEPAYKNALAFNPNIVVIKLGTNDSKSFNWKYKADFMKDAQTMIDAFKGLPSQPKIYLCYPSKAYLTGDGINDDIISKEIIPMIKKLAKKNDLSVIDLHTAMDGMPELFPDRIHPNEKGAQVMAKAVYQSISTLK	failed
MKNDDLLMQIMMLDFAVQDSALFIDTHPCDKEAMNYFNEAATRLKAAKKEYQKQGHALVNREVGAYQNDYLSAPWPWVGDHKCGCTKNVCNTL	failed
VLEVTQKATPNPSLLAAEDQVPCEKCGSLVPVWDMPEHMDYHFALELQKSFLQPHSSNPQVVSAVSHQGKRNPKSPLACTNKRPRPEGMQTLESFFKPLTH	failed
MEFEMLETETNGTIIKVIGVGGAGGNAVQHMINKGVQGVDFVVMNTDAQALSRSRAPSVIQLGNTGLGAGAKPEMGRAAAEEARERIADALRGAHMVFITAGMGGGTGTGAAPVVAQIAKEMGILTVGVVSKPFEFEGGKRMRVAEAGSQQLEDHVDSLIVVLNDKLFEVMGDDAEMDKCFQCADDVLNNAVAGIAEIINVDGLVNVDFEDVKTVMGEQGKAMMGTATVAGVDRARLAAEQAVASPLLEGVDLSGARGVLVNITSSRSLRLSETREVMNTIKSYAADDATVIFGAVYDDAMGDALRVTVVATGLGRAAKKQQSAPMTLLRTGTDNQPISAAPQGYAASHHVSTGDYGAFDTPAVWRNSRETAASHVQALQEKGVDTYDIPAFLRKQAD	not failed
MNGYTISAIYAHIASGISLEKRKGFFEMLDEIINNKVEKVIITYKDRLSRVGFDLFSYLFRKYRTEIAVISEVGNTKLDSEEVFEEIVSMLHSYSMKMYSKRKNHYIEVGYEG	failed
SDESDLPSAMPAVPAFGVEERNMVSGVLTLAERSIRSIMTPRTDVSWVNIDDDAATIRQQLTAAPHSFFPVCRGSLDEVVGIGRAKDLVADLITEGRVRRNRLRDPIIVHESIGILRLMDTLKRSRGQLVLVADEFGAIEGLVTPIDVFEAIAGEFPDEDELPDIVA	failed
MALPPYDPNFTLAFSYGRRDNVFENDPEHDESASAAIVAVELISSARLALKLDSVRTEYSAQYLVDKAGSRNLRRRRKLTVKDCLNFALKKGGIPRAEDWPPLGSESKTPSSYEPALVSMKGEVIEPKDMDEVPELLVHQSAVGAKLHVFTPHIELQQDVSAIAYARYVGLRDGIVVGTEKIQGKSMAIVKVWYKKKFVVVKVALSRMFYLAGVGPSVLLVDFCVPRLSID	failed
MRVTWEEAGWESVAPFVGRRRLPGWDCTVGLVIGDSAALMIDAGSSLREGALLRAEAQRLLGPGRRVTHLALTHPHFDHVFGAAAFSGVEVFGAVGLDTALAHGREELRADAVRNGLDPRAAEGAADLLVRPRHHVFGEWTLDLGGEVQVLLANVGPGHTAYDLAVLVSSSPEVVFCGDLVEESGEPQAGPDAIPSHWPAALDRLLDLGGQDAVYVPGHGATVDAAFVRTQRDELAARFGIA	failed
MFAGSIPMYIRVVSITAQSKLQFDMTVTYFENVWSPKVISLGAISAEFVQSNENSGMYIIHYPDKQTAISVFDKIKPEVDEVRTQNRIQITEGKRLFRVD	not failed
MTTDNPLISIYMPTWNRQQLAIRAIKSVLRQDYRHWEMIIVDDCSSSYQQLQQFVEELNDPRVRYTHNARNTGACAVRNQAIMQAQGHYITGIDDDDEWTPNRLSVFLAHKHQLTTHAFLYANDYVCEGEVYSQPASLPLYPKSPYSRRLFYKRNIIGNQVFTWAWRFKASLFDTELKAAQDYDIFLRMVVEYGEPWKVEEATQILHINHGEMQITSSPKKFSGYFHFYRKHKDKFDRASKKYQLFTLYQIRNKRMTWRTLLTLLSVRNSKRLAAGLRGR	failed
MATLPASKSASKVALTSEVEDEGIKEHTFQEIEKLQDLGINAADINKLKGSGYCTILSLIQTTKKELCNVKGISEAKVDKILEVASKIENCSSFITANELVQKRSKVLKITTGSTVFDQTLGGGIESMCITELFGENRCGKTQVCHTLAVTAQLPKSLNGGNGKVCYIDTEGTFRPEKVCKIAERYGLDGEAVLDNILYARAFTHEHLYQLLAISAAKMCEEPFALLVVDSIISLFRVDFSGRGELSERQQKLNKTMSILSKLSEQFNIAILITNQVMSDPGATMTFIANPMKPVGGHVIGHASTIRLSLRKGKGDQRVCKVYDAPNLPEVECIFQLSDKGVIDATD	failed
MASRFQEASLVTSPSYPNAVAWSSENLIAVAAGHLVIIINPALPTGPRGLITISDAELYQIGRVRSQDLLTGGLLPSSLKRERSPCVRSLSWSEIGMSPNHGCLLAVCTAEGRVKLYRPPYSDFCAEWIEIVDISKMLYENLSSMNFGESKNPSTSLSKDQVVEHDHEEDERISSLKARKRRKTSANNINLHEKNYTDRASCSKQDSKAEHNVLEIEVYKQASNGQDRRSLPKALKKCSQEISPQTYVSREALLSSHSVAWSSLLRFSSESSCGNMLRFSLLAIGSKSGSVSIWKVHAPECYHIERSNVSPMVELTAIVQTHSSWVSTMSWGIFGCDSSNPQVVLVTGSCDGSVKIWMSNKEDLQNSVEVYKSSFFLLKEVVAVNPVQVSTLSFVVSNHYNAMHLAIGKGSGSFEVWKCEISTRKFEQIVSTNAHNQVVTGLAWSYDGRCLYSCSQDNYVRSWILCENAISEVPIPANTPGLSSTTDLPDDFLSCLGVALSPGNLAVALVRNFNVELLNPMYQARSQKAAVEFLWNGAQQSGESEDSTETVTEAILGFSKNEFANWESNILWSLKEFNYLNKPLVLWDMVAAMLAFKQSMPEFVELVLTKWLSVSYLGFHDDISMEDLVPKITKRFSDVPSRLLHILNVISRRVMLSELKTEEINRKLQGQRTNDEGEIDLWLKLLQESERELRERLVGLSFSAYLLAESSQGTISPPSWNWRPAGLALLQQWVEINRDIVHSQLETLSLEVKSSRTRSSNSTETALEEEKCPYCAAPVNFHSAEEAFCESSHQKKKKSKDKERCDESHKLERCCVSMQVCPPTPLWFCKCCNRMTLELAPETLFALPSFPSDLKSLPKSSFSKVASKPFCLFCGVLLQRKQPEFLLSASPV	failed
MKLKKRKVAAALLKRFTLPLLFTTGSLGAVTYEVHGDFINFAKVGFNHSPINPVKGIYPTETFVNLTGKLEGSVHLGRGWTVNLGGVLGGQAYDGTKYDRWAKDFTPPSYWDKTSCGTDSMSLCMNATKMWQQSGPGGVINPRGIGWEYMGEWNGLFPNYYPANAYLPGGSRRYQVYKANLTYDSDRVHMVMGRFDITEQEQMDWIYQLFQGFYGTFKLTKNMKFLLFSGWGRGIADGQWLFPIYREKPWGVHKAGIIYRPTKNLMIHPYVYLIPMVGTLPGAKIEYDTNPEFSGRGIRNRTTFYALYDYRWNNAEYGRYAPARYNTWDPFLDNGKWRGLQGPGGATLLLRHHIDINNYFVVGGAYLNIGNPNMNLGTWGNPVAVDGIEQWVGSIYSLGFAGIDNITDADAFTEYVKGGGKHGKFSWSVYQRFTTAPRALEYGIGMYLDYQFSKHVKAGLKLVWLEFQIRAGYNPGTGFLGPNGQPLNLNTGLFESSAFAQGPQNMGGIAKSITQDRSHLMTHISYSF	failed
